Results as given in publication PMC6744478, “Development of R7BP inhibitors through cross-linking coupled mass spectrometry and integrated modeling” (Communications Biology, 2019).

T1: RGS7/Gβ5 duplex (human, UniProt P49802 1-495; O14775-2 1-353)
T1 construct: RGS7 (regulator of G protein signaling 7), human; cDNA in pCMV3 vector from Sino Biological; holds the loop RGS7-LP21 at aa230–250; Gβ5 (GNB5), human, short form; also called RGS7 duplex; RGS7/HIS-Gβ5; source: Expi293 HEK cells, transfected, purified; not shown: 6x HIS (named on the purified RGS7/HIS-Gβ5 of the Western blot)
T1 sequence (looked up) 1: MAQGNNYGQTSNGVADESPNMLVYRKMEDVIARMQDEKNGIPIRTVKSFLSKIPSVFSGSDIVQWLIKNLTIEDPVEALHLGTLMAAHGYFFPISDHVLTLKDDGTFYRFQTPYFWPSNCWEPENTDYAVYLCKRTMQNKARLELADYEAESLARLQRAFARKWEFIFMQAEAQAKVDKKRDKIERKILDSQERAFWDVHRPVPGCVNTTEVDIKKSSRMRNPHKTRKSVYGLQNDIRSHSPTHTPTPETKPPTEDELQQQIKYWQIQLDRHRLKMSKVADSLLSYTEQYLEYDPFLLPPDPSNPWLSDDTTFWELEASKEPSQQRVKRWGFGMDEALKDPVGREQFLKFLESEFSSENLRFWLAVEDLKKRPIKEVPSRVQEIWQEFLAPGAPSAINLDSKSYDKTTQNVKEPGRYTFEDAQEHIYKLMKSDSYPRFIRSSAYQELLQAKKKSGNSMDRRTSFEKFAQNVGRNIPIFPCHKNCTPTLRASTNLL
T1 sequence (looked up) 2: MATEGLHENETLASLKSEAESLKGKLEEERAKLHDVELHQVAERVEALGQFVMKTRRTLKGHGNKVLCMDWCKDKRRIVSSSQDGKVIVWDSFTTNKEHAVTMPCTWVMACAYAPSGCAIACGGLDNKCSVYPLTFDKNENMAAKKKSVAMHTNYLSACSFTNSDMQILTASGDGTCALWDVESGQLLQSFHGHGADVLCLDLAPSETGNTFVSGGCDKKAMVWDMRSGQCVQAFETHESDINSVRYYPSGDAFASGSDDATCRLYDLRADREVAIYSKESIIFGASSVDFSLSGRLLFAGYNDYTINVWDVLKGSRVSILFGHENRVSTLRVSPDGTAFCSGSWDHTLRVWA

T2: RGS6/Gβ5 duplex (human, UniProt P49758 1-472; O14775-2 1-353)
T2 construct: RGS6 (regulator of G protein signaling 6), human; Gβ5 (GNB5), human, short form; Only GNB5 constructs with an N-terminal 6x HIS or TS tag are described; also called RGS6 duplex; source: Expi293 HEK cells, transfected, purified
T2 sequence (looked up) 1: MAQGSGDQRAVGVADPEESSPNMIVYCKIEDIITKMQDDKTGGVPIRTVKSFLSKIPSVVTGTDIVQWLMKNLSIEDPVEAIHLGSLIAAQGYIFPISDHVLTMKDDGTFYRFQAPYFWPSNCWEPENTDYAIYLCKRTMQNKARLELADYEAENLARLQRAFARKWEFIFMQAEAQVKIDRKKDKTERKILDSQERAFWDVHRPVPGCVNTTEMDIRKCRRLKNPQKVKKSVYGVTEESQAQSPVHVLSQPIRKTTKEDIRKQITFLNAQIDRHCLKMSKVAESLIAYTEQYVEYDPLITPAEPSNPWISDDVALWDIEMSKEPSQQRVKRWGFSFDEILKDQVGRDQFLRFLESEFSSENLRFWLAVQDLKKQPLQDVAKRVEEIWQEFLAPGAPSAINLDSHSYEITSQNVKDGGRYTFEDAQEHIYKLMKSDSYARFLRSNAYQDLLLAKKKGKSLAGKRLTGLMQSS
T2 sequence (looked up) 2: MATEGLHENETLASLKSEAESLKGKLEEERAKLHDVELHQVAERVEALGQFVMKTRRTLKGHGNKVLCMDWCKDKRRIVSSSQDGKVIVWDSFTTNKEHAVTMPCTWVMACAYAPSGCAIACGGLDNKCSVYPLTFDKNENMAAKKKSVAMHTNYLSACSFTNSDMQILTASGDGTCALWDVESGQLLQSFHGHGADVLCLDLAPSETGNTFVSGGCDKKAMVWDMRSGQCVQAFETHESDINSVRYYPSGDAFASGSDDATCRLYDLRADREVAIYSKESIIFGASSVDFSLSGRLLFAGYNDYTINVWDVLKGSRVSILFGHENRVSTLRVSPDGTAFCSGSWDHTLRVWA

T3: RGS9/Gβ5 duplex (human, UniProt O75916 1-674; O14775-2 1-353)
T3 construct: RGS9-2 (regulator of G protein signaling 9, splice form 2), human; cDNA in pCMV3 vector from Sino Biological; Gβ5 (GNB5), human, short form; also called RGS9 duplex; RGS9-2/Gβ5; source: Expi293 HEK cells, transfected, purified
T3 sequence (looked up) 1: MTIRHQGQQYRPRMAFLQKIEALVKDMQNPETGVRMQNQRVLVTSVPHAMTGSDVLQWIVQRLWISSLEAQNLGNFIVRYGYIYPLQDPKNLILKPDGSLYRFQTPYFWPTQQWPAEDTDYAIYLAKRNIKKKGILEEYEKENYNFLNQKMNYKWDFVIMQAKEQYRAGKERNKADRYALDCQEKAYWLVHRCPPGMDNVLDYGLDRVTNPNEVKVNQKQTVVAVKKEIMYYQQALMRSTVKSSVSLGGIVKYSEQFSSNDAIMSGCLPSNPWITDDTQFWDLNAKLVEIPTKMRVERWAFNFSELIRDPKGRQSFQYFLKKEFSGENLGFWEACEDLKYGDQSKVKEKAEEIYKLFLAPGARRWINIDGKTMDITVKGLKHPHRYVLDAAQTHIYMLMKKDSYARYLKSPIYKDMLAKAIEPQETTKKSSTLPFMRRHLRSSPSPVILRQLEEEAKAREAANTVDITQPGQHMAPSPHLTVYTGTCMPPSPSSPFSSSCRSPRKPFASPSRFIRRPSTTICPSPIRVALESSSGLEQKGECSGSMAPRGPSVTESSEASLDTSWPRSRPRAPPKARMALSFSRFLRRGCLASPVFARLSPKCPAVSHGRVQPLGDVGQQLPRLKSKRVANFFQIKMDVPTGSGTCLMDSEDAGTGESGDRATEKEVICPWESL
T3 sequence (looked up) 2: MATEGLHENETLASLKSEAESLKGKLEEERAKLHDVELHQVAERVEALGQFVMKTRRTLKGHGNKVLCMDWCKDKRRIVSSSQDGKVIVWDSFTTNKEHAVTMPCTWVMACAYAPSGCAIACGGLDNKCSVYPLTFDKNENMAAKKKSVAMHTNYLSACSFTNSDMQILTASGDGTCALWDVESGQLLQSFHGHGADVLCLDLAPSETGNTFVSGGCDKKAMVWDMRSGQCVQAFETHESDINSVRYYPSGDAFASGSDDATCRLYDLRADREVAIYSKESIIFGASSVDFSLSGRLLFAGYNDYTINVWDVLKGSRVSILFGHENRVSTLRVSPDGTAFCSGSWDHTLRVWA


What was measured:
Experiment in all cases: SPR; OpenSPR (Nicoya), Streptavidin sensor chip; tagged R7BP variant as ligand, purified R7-RGS/Gβ5 duplex as analyte at 3–5 concentrations; PBS pH 7.4, 0.005% Tween20; 25 µL per minute; 1:1-binding model; two independent experiments
Settings in all cases: both partners purified
RGS7/Gβ5 duplex = target: T1, RGS7/Gβ5 duplex
RGS6/Gβ5 duplex = target: T2, RGS6/Gβ5 duplex
RGS11/Gβ5 duplex = target: T4, RGS11/Gβ5 duplex (human, UniProt O94810 1-467; O14775-2 1-353)
T4 construct: RGS11 (regulator of G protein signaling 11), human; Gβ5 (GNB5), human, short form; also called RGS11 duplex; source: Expi293 HEK cells, transfected, purified

RGS9/Gβ5 duplex = target: T3, RGS9/Gβ5 duplex

T4 sequence (O94810 whole entry, one chain of several): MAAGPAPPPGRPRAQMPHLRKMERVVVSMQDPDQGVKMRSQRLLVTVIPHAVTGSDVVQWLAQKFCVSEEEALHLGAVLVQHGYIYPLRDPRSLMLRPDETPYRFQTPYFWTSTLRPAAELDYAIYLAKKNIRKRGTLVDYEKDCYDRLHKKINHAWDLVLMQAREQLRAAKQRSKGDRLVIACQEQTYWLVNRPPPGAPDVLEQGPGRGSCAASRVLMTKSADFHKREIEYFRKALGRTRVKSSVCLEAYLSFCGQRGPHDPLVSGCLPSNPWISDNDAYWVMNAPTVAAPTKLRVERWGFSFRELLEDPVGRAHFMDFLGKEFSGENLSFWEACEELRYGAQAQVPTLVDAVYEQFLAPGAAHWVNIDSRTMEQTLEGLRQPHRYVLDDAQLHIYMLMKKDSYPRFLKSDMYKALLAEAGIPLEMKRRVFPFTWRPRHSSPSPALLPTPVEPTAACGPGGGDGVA

Binder	Kd (RGS7/Gβ5 duplex) [nM]	Kd (RGS6/Gβ5 duplex) [nM]	Kd (RGS11/Gβ5 duplex) [nM]	Kd (RGS9/Gβ5 duplex) [nM]
R7BPΔC (domain or fragment, human, UniProt Q6MZT1 1-222, looked up, R7BP (RGS7BP), human, C-terminus aa223–257 removed (the mutated cysteines 252 and 253 lie in the removed stretch); Its tag is surmised from its use as SPR ligand; also called R7BP with the C-terminus (aa223–257) removed; source: Expi293 HEK cells, transfected, purified) MSSAPNGRKKRPSRSTRSSIFQISKPPLQSGDWERRGSGSESAHKTQRALDDCKMLVQEFNTQVALYRELVISIGDVSVSCPSLRAEMHKTRTKGCEMARQAHQKLAAISGPEDGEIHPEICRLYIQLQCCLEMYTTEMLKSICLLGSLQFHRKGKEPGGGTKSLDCKIEESAETPALEDSSSSPVDSQQHSWQVSTDIENTERDMREMKNLLSKLRETMPL	9.9	–	–	–
R7BPΔN (domain or fragment, human, UniProt Q6MZT1 22-257, looked up, R7BP (RGS7BP), human, lacking the N-terminal 21 amino acids (R7BP-N21); C252S, C253S are stated for all R7BP constructs; Its tag is surmised from its use as SPR ligand; also called truncated R7BP derivative lacking the N-terminal 21 amino acids; source: Expi293 HEK cells, transfected, purified) QISKPPLQSGDWERRGSGSESAHKTQRALDDCKMLVQEFNTQVALYRELVISIGDVSVSCPSLRAEMHKTRTKGCEMARQAHQKLAAISGPEDGEIHPEICRLYIQLQCCLEMYTTEMLKSICLLGSLQFHRKGKEPGGGTKSLDCKIEESAETPALEDSSSSPVDSQQHSWQVSTDIENTERDMREMKNLLSKLRETMPLPLKNQDDSSLLNLTPYPLVRRRKRRFFGLSSLISS	1.8	–	–	–
R7BP-FL (full-length R7BP; construct R7BP-TEV-TS) (natural protein, human, UniProt Q6MZT1 1-257, looked up, last residue 257 by the printed aa223–257; palmitoylation site removed; also called RGS7BP; source: Expi293 HEK cells, transfected, purified (StrepTrap HP; SEC if needed); not shown: Twin-Strep (after a TEV protease site), C-terminal, kept) MSSAPNGRKKRPSRSTRSSIFQISKPPLQSGDWERRGSGSESAHKTQRALDDCKMLVQEFNTQVALYRELVISIGDVSVSCPSLRAEMHKTRTKGCEMARQAHQKLAAISGPEDGEIHPEICRLYIQLQCCLEMYTTEMLKSICLLGSLQFHRKGKEPGGGTKSLDCKIEESAETPALEDSSSSPVDSQQHSWQVSTDIENTERDMREMKNLLSKLRETMPLPLKNQDDSSLLNLTPYPLVRRRKRRFFGLSSLISS	19	2.3	2.3	1.5
